Drawing on the supplement of paper PMC10724198, this text covers protein stability index for 67 sequences.

The test system of the data set is Saccharomyces cerevisiae. As to the kind of experiment: protein stability index of tFT-peptide fusion (C-terminal peptide) (PSI (0-1 scale)); higher = more stable (slower turnover). Particulars: temperature: 30 C. The procedure:
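MPS profiling in S. cerevisiae of the yeast C-terminome library: the last 12 aa of each annotated ORF are fused to the C-terminus of a sfGFP-mCherry timer, after a GGGS linker. Cells are FACS-sorted into 8 mCherry/sfGFP bins and deep-sequenced. PSI runs from 0 (unstable) to 1 (stable); wild type and das1Δ backgrounds, two technical replicates each.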

The mark [1] stands for this setting: genetic background: das1 deletion.

± gives the standard deviation of the averaged measurements.

As to RLGDVLHVCCPS [YHL049C C-terminal 12 aa], the protein stability index runs as follows: under setting [1], 0.717 ± 0.03; (genetic background: wild type) 0.7 ± 0.097.
For “RLKSSVICSGTS [YLR399W-A C-terminal 12 aa]”, the protein stability index is, setting by setting: under setting [1], 0.68237 ± 6.9e-05; (genetic background: wild type) 0.664 ± 0.015.
As for RMSNGLYTISMS [YPR050C C-terminal 12 aa], the protein stability index reads like this: under setting [1], 0.694 ± 0.017; (genetic background: wild type) 0.6869 ± 0.0011.
For RNLLSTYHPMLM [YLR124W C-terminal 12 aa], the protein stability index runs as follows: under setting [1], 0.679 ± 0.0082; (genetic background: wild type) 0.665 ± 0.0023.
RNRLENISTMVI [YIA6 C-terminal 12 aa]: the protein stability index runs as follows: under setting [1], 0.71 ± 0.012; (genetic background: wild type) 0.709 ± 0.019.
Taken in the same sequence, the figures for RPWYVRQFHFWC [TAT2 C-terminal 12 aa] were 0.713 ± 0.0097 and 0.538 ± 0.011.
RQRRLQAAGRWF [PCP1 C-terminal 12 aa] had a protein stability index under setting [1] of 0.716 ± 0.014 and a protein stability index (genetic background: wild type) of 0.6854 ± 0.0044.
On the same counts, the results for RRKITLIEDDEE [SAS3 C-terminal 12 aa] are 0.715 ± 0.011 and 0.672 ± 0.019.
RRLKNKQRTRFQ [YNR021W C-terminal 12 aa]: the protein stability index under setting [1] was determined as 0.7264 ± 0.0013 and the protein stability index (genetic background: wild type) turned out to be 0.698 ± 0.023.
For the sequence RRMKLKERKRTT [YBL029W C-terminal 12 aa], the protein stability index was determined as 0.713 ± 0.022 under setting [1] and 0.655 ± 0.05 (genetic background: wild type).
Take RRNRGTPVKYTR [DOT1 C-terminal 12 aa]: the protein stability index reads like this: under setting [1], 0.6965 ± 0.0024; (genetic background: wild type) 0.7 ± 0.016.
Regarding RSHKCYPHDVRF [NAT3 C-terminal 12 aa], the protein stability index is, setting by setting: under setting [1], 0.7614 ± 0.0011; (genetic background: wild type) 0.662 ± 0.024.
On the same counts, the results for RSVGKNSEKVST [QDR1 C-terminal 12 aa] are 0.6986 ± 0.0019 and 0.695 ± 0.01.
Take RTANVVGLDVPT [FMC1 C-terminal 12 aa]: the protein stability index is 0.683 ± 0.017 under setting [1] and 0.6639 ± 0.0044 (genetic background: wild type).
RTAYILMYQKRN [UBP3 C-terminal 12 aa]: the protein stability index by setting is: under setting [1], 0.782 ± 0.014; (genetic background: wild type) 0.1351 ± 0.00015.
In turn, RTLTTGNYHGLA [SYP1 C-terminal 12 aa] showed a protein stability index under setting [1] of 0.6833 ± 0.0056 and a protein stability index (genetic background: wild type) of 0.6781 ± 0.0046.
On the same counts, the results for RVRRRLFAPEST [SLD3 C-terminal 12 aa] are 0.716 ± 0.018 and 0.802 ± 0.075.
On the same counts, the results for RYRLSQRQESKK [MRX4 C-terminal 12 aa] are 0.698 ± 0.011 and 0.682 ± 0.021.
Taken in the same sequence, the figures for SAIENYRKAYGI [URA10 C-terminal 12 aa] were 0.664 ± 0.038 and 0.69935 ± 0.00068.
Regarding SALILMYKGFGL [UBP6 C-terminal 12 aa], the protein stability index is 0.664 ± 0.022 under setting [1] and 0.683 ± 0.015 (genetic background: wild type).
SALNKIKADEKK [ACO1 C-terminal 12 aa]: the protein stability index under setting [1] is 0.689 ± 0.024 and the protein stability index (genetic background: wild type) is 0.684 ± 0.024.
As for SDEEPSSKKRKV [VPS75 C-terminal 12 aa], the protein stability index was determined as 0.703 ± 0.035 under setting [1] and 0.678 ± 0.01 (genetic background: wild type).
Taken in the same sequence, the figures for SDQKGGRSVSTS [YLR001C C-terminal 12 aa] were 0.6896 ± 0.0021 and 0.734 ± 0.017.
On the same counts, the results for SEGLQFLQREKK [MSE1 C-terminal 12 aa] are 0.711 ± 0.011 and 0.681 ± 0.011.
In the case of SEVKGYSKLNIV [ASI3 C-terminal 12 aa], the protein stability index under setting [1] was found to be 0.695 ± 0.026 and the protein stability index (genetic background: wild type) was 0.668 ± 0.035.
On the same counts, the results for SFFIYVNFTVYF [YCR001W C-terminal 12 aa] are 0.175 ± 0.036 and 0.178 ± 0.033.
With SFHKEFFDQYRD [ALT1 C-terminal 12 aa], the protein stability index reads like this: under setting [1], 0.7326 ± 0.0045; (genetic background: wild type) 0.774 ± 0.048.
SFVKIQDAIKKT [MRPL9 C-terminal 12 aa]: the protein stability index stood at 0.7417 ± 0.0063 under setting [1] and 0.627 ± 0.015 (genetic background: wild type).
Taken in the same sequence, the figures for SGETSDIIFRNY [ADK2 C-terminal 12 aa] were 0.74 ± 0.023 and 0.786 ± 0.012.
Taken in the same sequence, the figures for SGKRGVGKTDFR [NOG1 C-terminal 12 aa] were 0.716 ± 0.00084 and 0.6901 ± 0.00098.
For SGPVEELVSPSK [IRC8 C-terminal 12 aa], the protein stability index is, setting by setting: under setting [1], 0.7034 ± 0.0033; (genetic background: wild type) 0.685 ± 0.032.
SHEQKFENVQKE [STF2 C-terminal 12 aa]: the protein stability index stood at 0.711 ± 0.017 under setting [1] and 0.705 ± 0.012 (genetic background: wild type).
On the same counts, the results for SISVLFDSLAAL [PRS1 C-terminal 12 aa] are 0.714 ± 0.0093 and 0.736 ± 0.022.
Taken in the same sequence, the figures for SKADSYRSVIRH [DLT1 C-terminal 12 aa] were 0.667 ± 0.037 and 0.675 ± 0.023.
SKFGSIFKKVFG [YGR237C C-terminal 12 aa]: the protein stability index is, setting by setting: under setting [1], 0.689 ± 0.017; (genetic background: wild type) 0.775 ± 0.077.
On the same counts, the results for SKKVICNTFGYN [DDI2 C-terminal 12 aa] are 0.689 ± 0.027 and 0.733 ± 0.1.
Taken in the same sequence, the figures for SKMLKNKIPLKN [YGL138C C-terminal 12 aa] were 0.667 ± 0.0083 and 0.685 ± 0.039.
Taken in the same sequence, the figures for SKREFIESLRPK [SKG1 C-terminal 12 aa] were 0.707 ± 0.029 and 0.679 ± 0.03.
In the case of “SLCKNTIISSSV [YAL063C-A C-terminal 12 aa]”, the protein stability index is 0.693 ± 0.023 under setting [1] and 0.703 ± 0.035 (genetic background: wild type).
Take SLDDFGVDVDME [PFA4 C-terminal 12 aa]: the protein stability index reads like this: under setting [1], 0.711 ± 0.016; (genetic background: wild type) 0.683 ± 0.016.
In the case of SLDQEIQSLLSK [GPX2 C-terminal 12 aa], the protein stability index is, setting by setting: under setting [1], 0.6903 ± 0.0018; (genetic background: wild type) 0.654 ± 0.028.
Regarding SLFPRDPKRLRP [DPS1 C-terminal 12 aa], the protein stability index by setting is: under setting [1], 0.7133 ± 0.0054; (genetic background: wild type) 0.6987 ± 0.0031.
Taken in the same sequence, the figures for SLIKQVGVKLDR [JHD2 C-terminal 12 aa] were 0.671 ± 0.025 and 0.67 ± 0.013.
On the same counts, the results for SLPLVSLFIVLA [YJL064W C-terminal 12 aa] are 0.267 ± 0.019 and 0.268 ± 0.0062.
As for SLYTLNYNVKNP [ATG17 C-terminal 12 aa], the protein stability index runs as follows: under setting [1], 0.7157 ± 0.0035; (genetic background: wild type) 0.6907 ± 0.00092.
On the same counts, the results for “SMHAFLCKIYKR [YCR095W-A C-terminal 12 aa]” are 0.701 ± 0.02 and 0.6761 ± 0.0035.
In the case of SMPLYKDVQKDA [RBK1 C-terminal 12 aa], the protein stability index by setting is: under setting [1], 0.717 ± 0.027; (genetic background: wild type) 0.665 ± 0.015.
Taken in the same sequence, the figures for SMTTTNFSDFSL [UPC2 C-terminal 12 aa] were 0.6932 ± 0.0047 and 0.688 ± 0.036.
On the same counts, the results for SNDDFRKMFLGE [PRP24 C-terminal 12 aa] are 0.725 ± 0.011 and 0.708 ± 0.01.
For SNSNQHFGNVTF [IME2 C-terminal 12 aa], the protein stability index by setting is: under setting [1], 0.713 ± 0.0014; (genetic background: wild type) 0.6829 ± 0.0059.
SPAHSFEKIQKI [ERF2 C-terminal 12 aa] gave a protein stability index under setting [1] of 0.692 ± 0.015 and a protein stability index (genetic background: wild type) of 0.688 ± 0.029.
On the same counts, the results for SPYDWFRNTETP [DER1 C-terminal 12 aa] are 0.726 ± 0.035 and 0.737 ± 0.0089.
SQVLPESERRLD [ATG22 C-terminal 12 aa] displayed a protein stability index under setting [1] of 0.675 ± 0.013 and a protein stability index (genetic background: wild type) of 0.676 ± 0.03.
On the same counts, the results for SRIQNASASGEI [TIM13 C-terminal 12 aa] are 0.685 ± 0.015 and 0.715 ± 0.015.
For the sequence SRSNSHRTFFKR [FPK1 C-terminal 12 aa], the protein stability index is, setting by setting: under setting [1], 0.737 ± 0.053; (genetic background: wild type) 0.714 ± 0.043.
On the same counts, the results for SSLSFLSSFVDI [VAM10 C-terminal 12 aa] are 0.708 ± 0.025 and 0.702 ± 0.048.
SSSGTSSSHLEL [APL6 C-terminal 12 aa] yielded a protein stability index under setting [1] of 0.702 ± 0.0062 and a protein stability index (genetic background: wild type) of 0.672 ± 0.028.
Taken in the same sequence, the figures for SSSLSLESFMKS [SNM1 C-terminal 12 aa] were 0.748 ± 0.036 and 0.725 ± 0.019.
For the sequence SSTVESTNINME [MRT4 C-terminal 12 aa], the protein stability index under setting [1] is 0.6903 ± 0.0023 and the protein stability index (genetic background: wild type) is 0.721 ± 0.00096.
On to SSVAFSKNLECV [YGR139W C-terminal 12 aa], for which the protein stability index runs as follows: under setting [1], 0.7073 ± 0.0066; (genetic background: wild type) 0.696 ± 0.038.
On the same counts, the results for SSYFRIEGKKKK [CUE2 C-terminal 12 aa] are 0.68 ± 0.022 and 0.683 ± 0.024.
With STSDFELDDLED [YPL264C C-terminal 12 aa], the protein stability index runs as follows: under setting [1], 0.6965 ± 0.0052; (genetic background: wild type) 0.729 ± 0.026.
On the same counts, the results for STTKQQSQEAVA [YHL026C C-terminal 12 aa] are 0.704 ± 0.027 and 0.689 ± 0.054.
Taken in the same sequence, the figures for SVEEAFQLKSFD [LAA1 C-terminal 12 aa] were 0.713 ± 0.0014 and 0.715 ± 0.056.
On the same counts, the results for “SVFCRNYPSFLL [YMR086C-A C-terminal 12 aa]” are 0.697 ± 0.011 and 0.7 ± 0.035.
On to SVLQRRQSTQNS [HAL1 C-terminal 12 aa], for which the protein stability index is 0.719 ± 0.0076 under setting [1] and 0.691 ± 0.06 (genetic background: wild type).
For “SVSVQVKWLYSA [YER107W-A C-terminal 12 aa]”, the protein stability index runs as follows: under setting [1], 0.657 ± 0.012; (genetic background: wild type) 0.159 ± 0.017.
